According to US9863962, “Aptamers and sensing technology used for detection of glycated hemoglobin in whole blood” (Alfaisal University):

Columns and labels:
[1] = molecular target: T1, glycated hemoglobin HbA1c (UniProt P69905;P68871 P69905:2-142,P68871:2-147); experiment: electrochemical impedance on HbA1C-gold electrode; 50 mM Tris pH 7.5, 150 mM NaCl, 2 mM MgCl2; details: tags: none; purified HbA1C from Monojo (Amman, Jordan); immobilized on cysteamine/PDITC gold electrode; chain copies: 2
Method: (§1) Binding analysis of the aptamer sequences to Hb and HbA1C: In order to test the binding affinity of the aptamer sequences to their protein targets, some representative sequences were synthesized after eliminating the primers sequence. A solution of 25 nM from each aptamer sequence in binding buffer was incubated with the Hb and HbA1C-modified electrodes (described in section 2.3.4) for 30 min. The electrodes were then washed with binding buffer and impedance measurements were recorded in 5 mM [Fe(CN)_6]^{3-/4-} redox couple. The binding was then evaluated by calculating the % $RCT$ change)((R−R°/R°%).
(§2) A significant change in the $Rct$ after the incubation of most of the tested aptamers with the HbA1C electrodes while no response was obtained with scrambled DNA sequence (control DNA) indicating specific binding of the aptamers to HbA1C. […] The highest change in EIS signal was obtained for aptamers G11, G23, G18, G20, G15, therefore these aptamers were subjected to further analysis to assess their binding affinity. The dissociation constants were determined by incubating different concentrations of the aptamers with Hb and HbA1C-modified electrodes. […] The K_d were then calculated from the binding curve using non linear regression analysis. […] Four HbA1C-specific aptamers with high affinity and specificity were obtained (G11, G18, G20, G23). […]

[2] = molecular target: T2, bovine serum albumin (BSA) (Bos taurus, UniProt P02769 P02769:25-607); experiment: impedance; no significant response; details: tags: none; Sigma
[3] = molecular target: T2, bovine serum albumin (BSA); experiment: impedance; specificity control; details: tags: none; Sigma
Method: The binding specificity of the HbA1C aptamer (G20) was also confirmed by incubating the HbA1C modified electrode with different concentrations of non glycated Hb and BSA as control. No significant response was obtained for the non specific proteins which indicates excellent specificity of the selected aptamer (FIG. 3). Similarly, the specificity of the tHb aptamer (G15) was verified against BSA as control. The two aptamers, G15 and G20, were then applied for Hb and HbA1C detection a microarray platform.

[4] = molecular target: T3, hemoglobin (Hb, non-glycated / total Hb) (UniProt P69905;P68871 P69905:2-142,P68871:2-147); experiment: electrochemical impedance on Hb-gold electrode; 50 mM Tris pH 7.5, 150 mM NaCl, 2 mM MgCl2; details: tags: none; purified Hb from Monojo (Amman, Jordan); immobilized on cysteamine/PDITC gold electrode; chain copies: 2
Method: as §1, §2

[5] = molecular target: T2, bovine serum albumin (BSA); experiment: square wave voltammetry; no response with BSA; details: tags: none; Sigma
Method: (§3) For the Hb and HbA1C detection and selectivity experiments, each aptamer-modified electrode on the aptasensor array chip was incubated for 30 min with specific concentrations of Hb and HbA1C standard solutions. The electrodes were then washed with 50 mM Tris-HCl buffer pH 7.4 and subjected to square wave voltammetry (SWV) measurements in 10 mM [Fe(CN)_6]^{3-/4-} redox couple in 0.1 M PBS buffer solution. The parameters used for the SWV measurements: amplitude 20 mV; interval time 0.04 s; step potential −5 mV; scan rate 125 mV s-1, and frequency 25 Hz. The cyclic voltammetry (CV) experiments were conducted at a scan rate of 100 mV/s.
(§4) Dose response of the aptasensors: The aptasensors voltammetric response toward tHb and HbA1C was measured in the concentration range of 100 pg/mL to 10 µg/mL. […] Three independent measurements were done for each data point in order to assess the reproducibility of the aptasensors array. […] The linear regression equation of the HbA1C aptasensor is (i°–i)/ i°%=45.0+14.6×log C [ng/ml], R=0.997, with a detection limit (LOD) of 0.2 ng/mL and for the tHb: (i°−i)/i°%=42.5+20.2×log C [ng/ml], R=0.98, with LOD=0.34 ng/ml. The LOD was calculated from 3(S_{y/x}/m), where S_{y/x} is the standard error of estimate and m is the slope of the calibration curve. […]

[6] = molecular target: T1, glycated hemoglobin HbA1c; experiment: square wave voltammetry aptasensor on AuNP electrode; LOD 0.2 ng/mL; details: tags: none; purified HbA1C from Monojo (Amman, Jordan); immobilized on cysteamine/PDITC gold electrode; chain copies: 2
Method: as §3, §4

[7] = molecular target: T3, hemoglobin (Hb, non-glycated / total Hb); experiment: square wave voltammetry aptasensor on AuNP electrode; LOD 0.34 ng/mL; details: tags: none; purified Hb from Monojo (Amman, Jordan); immobilized on cysteamine/PDITC gold electrode; chain copies: 2
Method: as §3, §4

[8] = molecular target: T1, glycated hemoglobin HbA1c; experiment: impedance; HbA1C-specific, Kd stated only as nanomolar range; details: tags: none; purified HbA1C from Monojo (Amman, Jordan); immobilized on cysteamine/PDITC gold electrode; chain copies: 2
Method: as §1
A significant change in the $Rct$ after the incubation of most of the tested aptamers with the HbA1C electrodes while no response was obtained with scrambled DNA sequence (control DNA) indicating specific binding of the aptamers to HbA1C. […] The highest change in EIS signal was obtained for aptamers G11, G23, G18, G20, G15, therefore these aptamers were subjected to further analysis to assess their binding affinity. The dissociation constants were determined by incubating different concentrations of the aptamers with Hb and HbA1C-modified electrodes. […] The K_d were then calculated from the binding curve using non linear regression analysis. […] Four HbA1C-specific aptamers with high affinity and specificity were obtained (G11, G18, G20, G23). […] The aptamer sequences may be made in full or part of it may be used for binding studies. Thus, from our SELEX screening, an aptamer that bind to the tHb (G15) as well as specific aptamers to HbA1C (G20) were obtained.

[9] = molecular target: T1, glycated hemoglobin HbA1c; experiment: impedance screen at 25 nM aptamer; lower signal than top five; details: tags: none; purified HbA1C from Monojo (Amman, Jordan); immobilized on cysteamine/PDITC gold electrode; chain copies: 2
Method: as §1
Binding affinity analysis of the aptamers: Eight representative sequences were subjected to initial binding analysis. Initial screening of the aptamer sequences (G11, G23, G20, G18, G15, G10, G22, G4) was performed using EIS to confirm their successful binding to HbA1C (FIG. 2A).

T2 sequence (P02769 25-607, one chain of several): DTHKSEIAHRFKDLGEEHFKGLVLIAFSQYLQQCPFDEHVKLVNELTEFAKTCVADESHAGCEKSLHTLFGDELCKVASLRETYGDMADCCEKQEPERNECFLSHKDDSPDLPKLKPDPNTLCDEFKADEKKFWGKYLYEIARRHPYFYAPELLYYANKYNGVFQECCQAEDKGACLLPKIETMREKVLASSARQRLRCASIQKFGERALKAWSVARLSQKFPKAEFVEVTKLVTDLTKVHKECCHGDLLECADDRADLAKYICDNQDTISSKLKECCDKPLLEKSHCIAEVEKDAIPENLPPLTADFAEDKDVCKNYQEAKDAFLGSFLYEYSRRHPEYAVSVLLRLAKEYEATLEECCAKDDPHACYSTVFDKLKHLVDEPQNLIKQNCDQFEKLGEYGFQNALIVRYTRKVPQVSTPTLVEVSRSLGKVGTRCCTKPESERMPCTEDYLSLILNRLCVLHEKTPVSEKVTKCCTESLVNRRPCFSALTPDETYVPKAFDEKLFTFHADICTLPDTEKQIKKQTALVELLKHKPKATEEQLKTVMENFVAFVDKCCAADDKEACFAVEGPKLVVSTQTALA
T1 sequence (P69905 2-142, chain 1 of 2): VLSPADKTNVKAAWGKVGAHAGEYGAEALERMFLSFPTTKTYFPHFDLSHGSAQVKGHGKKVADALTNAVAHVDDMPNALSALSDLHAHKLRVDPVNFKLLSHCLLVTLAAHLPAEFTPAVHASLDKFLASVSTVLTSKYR
T1 sequence (P68871 2-147, chain 2 of 2): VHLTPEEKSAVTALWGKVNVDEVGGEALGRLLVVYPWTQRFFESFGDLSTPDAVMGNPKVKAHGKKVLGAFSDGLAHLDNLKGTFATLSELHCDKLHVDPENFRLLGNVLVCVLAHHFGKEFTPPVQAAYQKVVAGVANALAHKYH
T3 sequence (P69905 2-142, chain 1 of 2): as the sequence (P69905 2-142, chain 1 of 2) above
T3 sequence (P68871 2-147, chain 2 of 2): as the sequence (P68871 2-147, chain 2 of 2) above

B1: G20 (ssDNA)
DNA: GGGGACACAGCAACACACCCACCCACCAGCCCCAGCATCATGCCCATCCGTCGTGTGTG
Kd [1]: 2.8 nM
binding result [2]: no binding

B2: G15 (ssDNA)
DNA: ACGCACACCAGAGACAAGTAGCCCCCCAAACGCGGCCACGGAACGCAGCACCTCCATGGC
binding result [3]: no binding
Kd [1]: 3.3 nM
Kd [4]: 2.7 nM

B3: thiol-G20 (ssDNA)
DNA: GGGGACACAGCAACACACCCACCCACCAGCCCCAGCATCATGCCCATCCGTCGTGTGTG
modifications: 5' HS-(CH2)6
binding result [5]: no binding
binding result [6]: binds

B4: thiol-G15 (ssDNA)
DNA: ACGCACACCAGAGACAAGTAGCCCCCCAAACGCGGCCACGGAACGCAGCACCTCCATGGC
modifications: 5' HS-(CH2)6
binding result [5]: no binding
binding result [7]: binds

B5: G11 (ssDNA)
DNA: CGACACCAGCACACAGACCCGAGACACACGTCAGATCAACAGCGACCGTATCATTGGTTG
binding result [8]: binds

B6: G18 (ssDNA)
DNA: GGCCACAGCAGCCAGTACACCCACCCACCAGCCCCGTCAACGACCTGAACCTGCCCTGTGTG
binding result [8]: binds

B7: G23 (ssDNA)
DNA: GGACACGGCAAAGGGGTATAGCCTACCGGACCGTGGACATGGAATTGTGTGCTGCGTGG
binding result [8]: binds

B8: G4 (ssDNA)
DNA: GGGCCGACGGGAGGGGGAGGGAGAGCAATACGAGGTGGGATGGCAGATTATGGGTGCACT
binding result [9]: binds
